The text below walks through data of patent US20220402983A1 (Janssen / Centocor, published 2022).

First the molecules themselves.
T1: human IL-23R (interleukin-23 receptor) (human, UniProt Q5VWK5 24-629)
T1 sequence (looked up): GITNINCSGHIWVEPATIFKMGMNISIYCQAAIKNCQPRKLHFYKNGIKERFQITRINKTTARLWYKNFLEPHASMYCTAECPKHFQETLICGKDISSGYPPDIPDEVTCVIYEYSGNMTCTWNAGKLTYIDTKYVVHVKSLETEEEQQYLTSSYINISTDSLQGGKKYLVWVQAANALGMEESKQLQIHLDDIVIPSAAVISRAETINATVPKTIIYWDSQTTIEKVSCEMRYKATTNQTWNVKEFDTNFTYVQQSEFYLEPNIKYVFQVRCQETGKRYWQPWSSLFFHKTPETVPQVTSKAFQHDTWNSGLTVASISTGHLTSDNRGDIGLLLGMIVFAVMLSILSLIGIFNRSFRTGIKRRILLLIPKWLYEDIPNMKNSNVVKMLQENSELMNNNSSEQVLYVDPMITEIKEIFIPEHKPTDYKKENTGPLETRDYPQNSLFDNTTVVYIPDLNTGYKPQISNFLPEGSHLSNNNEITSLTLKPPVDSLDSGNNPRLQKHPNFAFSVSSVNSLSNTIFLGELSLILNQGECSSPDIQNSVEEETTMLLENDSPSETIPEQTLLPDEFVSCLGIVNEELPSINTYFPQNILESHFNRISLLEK

B1: Compound No. 61 (peptide)
peptide: Ac-[dR][Pen]QTWQ[Pen][AEF][2Nal][Thp]K(Isobutyryl)NF-NH2
modifications: disulfide 2-7
SMILES: CC(=O)N[C@H](CCCNC(=N)N)C(=O)N[C@@H]1C(=O)N[C@@H](CCC(N)=O)C(=O)N[C@@H]([C@@H](C)O)C(=O)N[C@@H](Cc2c[nH]c3ccccc23)C(=O)N[C@@H](CCC(N)=O)C(=O)N[C@H](C(=O)N[C@@H](Cc2ccc(OCCN)cc2)C(=O)N[C@@H](Cc2ccc3ccccc3c2)C(=O)NC2(C(=O)N[C@@H](CCCCNC(=O)C(C)C)C(=O)N[C@@H](CC(N)=O)C(=O)N[C@@H](Cc3ccccc3)C(N)=O)CCOCC2)C(C)(C)SSC1(C)C
B2: Compound No. 68 (peptide)
peptide: Ac-[Pen]NT[Trp(7-Me)]K(Ac)[Pen][AEF][2Nal][αMeK]K(Ac)N[dL][αMeF]-NH2
modifications: disulfide 1-6
SMILES: CC(=O)NCCCC[C@@H]1NC(=O)[C@H](Cc2c[nH]c3c(C)cccc23)NC(=O)[C@H]([C@@H](C)O)NC(=O)[C@H](CC(N)=O)NC(=O)[C@@H](NC(C)=O)C(C)(C)SSC(C)(C)[C@@H](C(=O)N[C@@H](Cc2ccc(OCCN)cc2)C(=O)N[C@@H](Cc2ccc3ccccc3c2)C(=O)N[C@@](C)(CCCCN)C(=O)N[C@@H](CCCCNC(C)=O)C(=O)N[C@@H](CC(N)=O)C(=O)N[C@H](CC(C)C)C(=O)N[C@@](C)(Cc2ccccc2)C(N)=O)NC1=O
B3: Compound No. 57 (peptide)
peptide: Ac-[dR][Pen]QTWQ[Pen][AEF][2Nal][Thp]K(Propionyl)N[Thp]-NH2
modifications: disulfide 2-7
SMILES: CCC(=O)NCCCC[C@H](NC(=O)C1(NC(=O)[C@H](Cc2ccc3ccccc3c2)NC(=O)[C@H](Cc2ccc(OCCN)cc2)NC(=O)[C@H]2NC(=O)[C@H](CCC(N)=O)NC(=O)[C@H](Cc3c[nH]c4ccccc34)NC(=O)[C@H]([C@@H](C)O)NC(=O)[C@H](CCC(N)=O)NC(=O)[C@@H](NC(=O)[C@@H](CCCNC(=N)N)NC(C)=O)C(C)(C)SSC2(C)C)CCOCC1)C(=O)N[C@@H](CC(N)=O)C(=O)NC1(C(N)=O)CCOCC1
B4: Compound No. 58 (peptide)
peptide: Ac-[dR][Pen]QTWQ[Pen][AEF][2Nal][Thp]K(Butyryl)NF-NH2
modifications: disulfide 2-7
SMILES: CCCC(=O)NCCCC[C@H](NC(=O)C1(NC(=O)[C@H](Cc2ccc3ccccc3c2)NC(=O)[C@H](Cc2ccc(OCCN)cc2)NC(=O)[C@H]2NC(=O)[C@H](CCC(N)=O)NC(=O)[C@H](Cc3c[nH]c4ccccc34)NC(=O)[C@H]([C@@H](C)O)NC(=O)[C@H](CCC(N)=O)NC(=O)[C@@H](NC(=O)[C@@H](CCCNC(=N)N)NC(C)=O)C(C)(C)SSC2(C)C)CCOCC1)C(=O)N[C@@H](CC(N)=O)C(=O)N[C@@H](Cc1ccccc1)C(N)=O
B5: Compound No. 69 (peptide)
peptide: Ac-[Pen]NT[Trp(7-Me)]K(Ac)[Pen][AEF][2Nal][αMeK]K(Ac)N[dL][d(αMeF)]-NH2
modifications: disulfide 1-6
SMILES: CC(=O)NCCCC[C@@H]1NC(=O)[C@H](Cc2c[nH]c3c(C)cccc23)NC(=O)[C@H]([C@@H](C)O)NC(=O)[C@H](CC(N)=O)NC(=O)[C@@H](NC(C)=O)C(C)(C)SSC(C)(C)[C@@H](C(=O)N[C@@H](Cc2ccc(OCCN)cc2)C(=O)N[C@@H](Cc2ccc3ccccc3c2)C(=O)N[C@@](C)(CCCCN)C(=O)N[C@@H](CCCCNC(C)=O)C(=O)N[C@@H](CC(N)=O)C(=O)N[C@H](CC(C)C)C(=O)N[C@](C)(Cc2ccccc2)C(N)=O)NC1=O
B6: Compound No. 56 (peptide)
peptide: Ac-[dR][Pen]QTWQ[Pen][AEF][2Nal][Thp]K(Ac)N[Thp]-NH2
modifications: disulfide 2-7
SMILES: CC(=O)NCCCC[C@H](NC(=O)C1(NC(=O)[C@H](Cc2ccc3ccccc3c2)NC(=O)[C@H](Cc2ccc(OCCN)cc2)NC(=O)[C@H]2NC(=O)[C@H](CCC(N)=O)NC(=O)[C@H](Cc3c[nH]c4ccccc34)NC(=O)[C@H]([C@@H](C)O)NC(=O)[C@H](CCC(N)=O)NC(=O)[C@@H](NC(=O)[C@@H](CCCNC(=N)N)NC(C)=O)C(C)(C)SSC2(C)C)CCOCC1)C(=O)N[C@@H](CC(N)=O)C(=O)NC1(C(N)=O)CCOCC1
B7: Compound No. 53 (peptide)
peptide: Ac-[dR][Pen]QTWQ[Pen][AEF][2Nal][Thp]K(Ac)NF-NH2
modifications: disulfide 2-7
SMILES: CC(=O)NCCCC[C@H](NC(=O)C1(NC(=O)[C@H](Cc2ccc3ccccc3c2)NC(=O)[C@H](Cc2ccc(OCCN)cc2)NC(=O)[C@H]2NC(=O)[C@H](CCC(N)=O)NC(=O)[C@H](Cc3c[nH]c4ccccc34)NC(=O)[C@H]([C@@H](C)O)NC(=O)[C@H](CCC(N)=O)NC(=O)[C@@H](NC(=O)[C@@H](CCCNC(=N)N)NC(C)=O)C(C)(C)SSC2(C)C)CCOCC1)C(=O)N[C@@H](CC(N)=O)C(=O)N[C@@H](Cc1ccccc1)C(N)=O
B8: Compound No. 59 (peptide)
peptide: Ac-[dR][Pen]QTWQ[Pen][AEF][2Nal][Thp]K(Hexanoyl)NF-NH2
modifications: disulfide 2-7
SMILES: CCCCCC(=O)NCCCC[C@H](NC(=O)C1(NC(=O)[C@H](Cc2ccc3ccccc3c2)NC(=O)[C@H](Cc2ccc(OCCN)cc2)NC(=O)[C@H]2NC(=O)[C@H](CCC(N)=O)NC(=O)[C@H](Cc3c[nH]c4ccccc34)NC(=O)[C@H]([C@@H](C)O)NC(=O)[C@H](CCC(N)=O)NC(=O)[C@@H](NC(=O)[C@@H](CCCNC(=N)N)NC(C)=O)C(C)(C)SSC2(C)C)CCOCC1)C(=O)N[C@@H](CC(N)=O)C(=O)N[C@@H](Cc1ccccc1)C(N)=O
B9: Compound No. 54 (peptide)
peptide: Ac-[dR][Pen]QTWQ[Pen][AEF][2Nal][Thp]K(Propionyl)NF-NH2
modifications: disulfide 2-7
SMILES: CCC(=O)NCCCC[C@H](NC(=O)C1(NC(=O)[C@H](Cc2ccc3ccccc3c2)NC(=O)[C@H](Cc2ccc(OCCN)cc2)NC(=O)[C@H]2NC(=O)[C@H](CCC(N)=O)NC(=O)[C@H](Cc3c[nH]c4ccccc34)NC(=O)[C@H]([C@@H](C)O)NC(=O)[C@H](CCC(N)=O)NC(=O)[C@@H](NC(=O)[C@@H](CCCNC(=N)N)NC(C)=O)C(C)(C)SSC2(C)C)CCOCC1)C(=O)N[C@@H](CC(N)=O)C(=O)N[C@@H](Cc1ccccc1)C(N)=O
B10: Compound No. 55 (peptide)
peptide: Ac-[dR][Pen]QTWQ[Pen][AEF][2Nal][Thp]K(Cyclopropanecarbonyl)NF-NH2
modifications: disulfide 2-7
SMILES: CC(=O)N[C@H](CCCNC(=N)N)C(=O)N[C@@H]1C(=O)N[C@@H](CCC(N)=O)C(=O)N[C@@H]([C@@H](C)O)C(=O)N[C@@H](Cc2c[nH]c3ccccc23)C(=O)N[C@@H](CCC(N)=O)C(=O)N[C@H](C(=O)N[C@@H](Cc2ccc(OCCN)cc2)C(=O)N[C@@H](Cc2ccc3ccccc3c2)C(=O)NC2(C(=O)N[C@@H](CCCCNC(=O)C3CC3)C(=O)N[C@@H](CC(N)=O)C(=O)N[C@@H](Cc3ccccc3)C(N)=O)CCOCC2)C(C)(C)SSC1(C)C
B11: Compound No. 60 (peptide)
peptide: Ac-[dR][Pen]QTWQ[Pen][AEF][2Nal][Thp]K(Tfa)NF-NH2
modifications: disulfide 2-7
SMILES: CC(=O)N[C@H](CCCNC(=N)N)C(=O)N[C@@H]1C(=O)N[C@@H](CCC(N)=O)C(=O)N[C@@H]([C@@H](C)O)C(=O)N[C@@H](Cc2c[nH]c3ccccc23)C(=O)N[C@@H](CCC(N)=O)C(=O)N[C@H](C(=O)N[C@@H](Cc2ccc(OCCN)cc2)C(=O)N[C@@H](Cc2ccc3ccccc3c2)C(=O)NC2(C(=O)N[C@@H](CCCCNC(=O)C(F)(F)F)C(=O)N[C@@H](CC(N)=O)C(=O)N[C@@H](Cc3ccccc3)C(N)=O)CCOCC2)C(C)(C)SSC1(C)C

Bridges are numbered along the chain shown (N, C = ends). [ ]: non-standard residue; d: D form. The star is where a group is joined. Trp(7-Ph) = N[C@@H](Cc1c[nH]c2c(-c3ccccc3)cccc12)C(=O)O; Trp(7-Me) = Cc1cccc2c(C[C@H](N)C(=O)O)c[nH]c12; 2Nal = N[C@@H](Cc1ccc2ccccc2c1)C(=O)O; d(αMeF) = C[C@@](N)(Cc1ccccc1)C(=O)O; AEF = NCCOc1ccc(C[C@H](N)C(=O)O)cc1; Cyclopropanecarbonyl = O=C(C1CC1)*; αMeF = C[C@](N)(Cc1ccccc1)C(=O)O; Pen = CC(C)(S)[C@H](N)C(=O)O; αMeK = C[C@](N)(CCCCN)C(=O)O; 3Quin = not defined here; Isobutyryl = CC(C)C(=O)*; Thp = NC1(C(=O)O)CCOCC1; Abu = CC[C@H](N)C(=O)O; Hexanoyl = CCCCCC(=O)*; Aib = CC(C)(N)C(=O)O; Propionyl = CCC(=O)*; Tfa = O=C(C(F)(F)F)*; Butyryl = CCCC(=O)*

The test deals with T1, human IL-23R (interleukin-23 receptor). The test can be described thus: cell-based or functional assay.
As to B1, the “PBMC pSTAT3 IC50 (nM)” value amounted to 70 nM. Take B2: the “pStat3 HTRF (nM), IC50, DB cells IL23R pSTAT3 cell assay” value (from here on “pStat3 HTRF (nM), IC50”) was 7 nM. In the case of B3, the “PBMC pSTAT3 IC50 (nM)” value was determined as 18 nM.

On to Ac-[Pen]NT[Trp(7-Ph)]K(Ac)[Pen][AEF][3Quin][αMeK]K(Ac)N[Aib]-NH2 (disulfide 1-6; reading uncertain) [Compound No. 63], for which the “pStat3 HTRF (nM), IC50” value was 1.02 nM. For B4, the “PBMC pSTAT3 IC50 (nM)” value was 35 nM. With B5, the “pStat3 HTRF (nM), IC50” value came to 2.75 nM.

As for Ac-[Abu]QT[Trp(7-Ph)]K(Ac)C[AEF][2Nal][αMeK]K(Ac)N[αMeF]-NH2 (thioether 1-6) [Compound No. 67], the “pStat3 HTRF (nM), IC50” value came out at 5.52 nM.

As to Ac-[Pen]NT[Trp(7-Ph)]K(Ac)[Pen][AEF][3Quin][Thp]EN[Aib]-NH2 (disulfide 1-6; reading uncertain) [Compound No. 62], the “pStat3 HTRF (nM), IC50” value worked out at 0.413 nM. For the molecule B6, the “PBMC pSTAT3 IC50 (nM)” value stood at 4.9 nM. Still for that read-out and setting: with B7 the figure was 29 nM; with B8, 67 nM.

On to B9, for which the “PBMC pSTAT3 IC50 (nM)” value was determined as 47 nM.

For the molecule B10, the “PBMC pSTAT3 IC50 (nM)” value was determined as 25 nM. Still for that read-out and setting: with B11 the figure was 44 nM.
